Results published in patent US20200147120A1 (NATIONAL UNIVERSITY CORPORATION CHIBA UNIVERSITY, published 2020).

How the values were obtained:
Brm = target: T1, Brm (human, UniProt P51531 1-1590, limits assumed); test: binding test of DPF2 truncation mutants; format not described
T1 construct: also called hBRM

BRG1 = BRG1 (human, UniProt P51532 1-1647); test: as above
Sequence of BRG1 (P51532 whole entry): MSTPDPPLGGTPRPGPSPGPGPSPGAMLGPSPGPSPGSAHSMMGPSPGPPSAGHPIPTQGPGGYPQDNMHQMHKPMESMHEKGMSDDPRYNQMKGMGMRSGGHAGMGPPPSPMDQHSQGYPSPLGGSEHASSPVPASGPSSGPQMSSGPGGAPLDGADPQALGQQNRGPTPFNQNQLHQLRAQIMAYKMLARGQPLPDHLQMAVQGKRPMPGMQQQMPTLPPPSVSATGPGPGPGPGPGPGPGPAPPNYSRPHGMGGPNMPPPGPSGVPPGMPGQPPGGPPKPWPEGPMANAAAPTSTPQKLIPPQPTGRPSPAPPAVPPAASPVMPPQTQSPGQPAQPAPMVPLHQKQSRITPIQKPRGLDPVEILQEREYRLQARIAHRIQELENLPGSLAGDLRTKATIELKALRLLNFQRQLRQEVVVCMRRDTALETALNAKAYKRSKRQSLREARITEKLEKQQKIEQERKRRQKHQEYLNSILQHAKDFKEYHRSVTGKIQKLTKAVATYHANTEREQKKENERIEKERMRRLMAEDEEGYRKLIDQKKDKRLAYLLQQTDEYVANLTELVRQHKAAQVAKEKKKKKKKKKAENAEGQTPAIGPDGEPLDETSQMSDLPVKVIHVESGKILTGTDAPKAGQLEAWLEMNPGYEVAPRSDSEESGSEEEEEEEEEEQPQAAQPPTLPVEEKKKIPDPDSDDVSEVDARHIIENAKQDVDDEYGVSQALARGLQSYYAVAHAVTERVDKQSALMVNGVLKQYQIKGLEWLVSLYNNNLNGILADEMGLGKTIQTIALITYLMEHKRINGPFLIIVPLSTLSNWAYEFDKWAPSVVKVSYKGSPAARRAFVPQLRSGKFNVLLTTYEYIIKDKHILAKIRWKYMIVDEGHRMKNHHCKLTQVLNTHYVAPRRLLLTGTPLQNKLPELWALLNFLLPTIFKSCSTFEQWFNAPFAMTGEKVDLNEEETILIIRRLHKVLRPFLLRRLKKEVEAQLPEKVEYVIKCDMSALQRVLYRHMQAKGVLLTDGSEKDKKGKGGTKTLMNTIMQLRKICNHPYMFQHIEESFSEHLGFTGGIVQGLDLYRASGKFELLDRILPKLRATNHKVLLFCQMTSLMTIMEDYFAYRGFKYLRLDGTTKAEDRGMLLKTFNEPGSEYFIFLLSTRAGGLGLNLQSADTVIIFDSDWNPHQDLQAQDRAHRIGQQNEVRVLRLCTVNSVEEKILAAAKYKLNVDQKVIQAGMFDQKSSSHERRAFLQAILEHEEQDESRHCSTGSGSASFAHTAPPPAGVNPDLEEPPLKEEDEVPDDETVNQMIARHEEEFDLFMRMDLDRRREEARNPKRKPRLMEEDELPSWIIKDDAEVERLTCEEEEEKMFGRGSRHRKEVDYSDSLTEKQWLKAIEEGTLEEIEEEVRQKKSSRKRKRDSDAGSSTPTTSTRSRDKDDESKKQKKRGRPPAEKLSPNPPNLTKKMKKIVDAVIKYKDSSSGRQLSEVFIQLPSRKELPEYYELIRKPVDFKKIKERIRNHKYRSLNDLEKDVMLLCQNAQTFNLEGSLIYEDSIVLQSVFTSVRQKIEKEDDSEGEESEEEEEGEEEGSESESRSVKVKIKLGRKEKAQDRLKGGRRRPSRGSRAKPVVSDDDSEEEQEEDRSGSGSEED

T1 sequence (P51531 whole entry, the tested form may be a part): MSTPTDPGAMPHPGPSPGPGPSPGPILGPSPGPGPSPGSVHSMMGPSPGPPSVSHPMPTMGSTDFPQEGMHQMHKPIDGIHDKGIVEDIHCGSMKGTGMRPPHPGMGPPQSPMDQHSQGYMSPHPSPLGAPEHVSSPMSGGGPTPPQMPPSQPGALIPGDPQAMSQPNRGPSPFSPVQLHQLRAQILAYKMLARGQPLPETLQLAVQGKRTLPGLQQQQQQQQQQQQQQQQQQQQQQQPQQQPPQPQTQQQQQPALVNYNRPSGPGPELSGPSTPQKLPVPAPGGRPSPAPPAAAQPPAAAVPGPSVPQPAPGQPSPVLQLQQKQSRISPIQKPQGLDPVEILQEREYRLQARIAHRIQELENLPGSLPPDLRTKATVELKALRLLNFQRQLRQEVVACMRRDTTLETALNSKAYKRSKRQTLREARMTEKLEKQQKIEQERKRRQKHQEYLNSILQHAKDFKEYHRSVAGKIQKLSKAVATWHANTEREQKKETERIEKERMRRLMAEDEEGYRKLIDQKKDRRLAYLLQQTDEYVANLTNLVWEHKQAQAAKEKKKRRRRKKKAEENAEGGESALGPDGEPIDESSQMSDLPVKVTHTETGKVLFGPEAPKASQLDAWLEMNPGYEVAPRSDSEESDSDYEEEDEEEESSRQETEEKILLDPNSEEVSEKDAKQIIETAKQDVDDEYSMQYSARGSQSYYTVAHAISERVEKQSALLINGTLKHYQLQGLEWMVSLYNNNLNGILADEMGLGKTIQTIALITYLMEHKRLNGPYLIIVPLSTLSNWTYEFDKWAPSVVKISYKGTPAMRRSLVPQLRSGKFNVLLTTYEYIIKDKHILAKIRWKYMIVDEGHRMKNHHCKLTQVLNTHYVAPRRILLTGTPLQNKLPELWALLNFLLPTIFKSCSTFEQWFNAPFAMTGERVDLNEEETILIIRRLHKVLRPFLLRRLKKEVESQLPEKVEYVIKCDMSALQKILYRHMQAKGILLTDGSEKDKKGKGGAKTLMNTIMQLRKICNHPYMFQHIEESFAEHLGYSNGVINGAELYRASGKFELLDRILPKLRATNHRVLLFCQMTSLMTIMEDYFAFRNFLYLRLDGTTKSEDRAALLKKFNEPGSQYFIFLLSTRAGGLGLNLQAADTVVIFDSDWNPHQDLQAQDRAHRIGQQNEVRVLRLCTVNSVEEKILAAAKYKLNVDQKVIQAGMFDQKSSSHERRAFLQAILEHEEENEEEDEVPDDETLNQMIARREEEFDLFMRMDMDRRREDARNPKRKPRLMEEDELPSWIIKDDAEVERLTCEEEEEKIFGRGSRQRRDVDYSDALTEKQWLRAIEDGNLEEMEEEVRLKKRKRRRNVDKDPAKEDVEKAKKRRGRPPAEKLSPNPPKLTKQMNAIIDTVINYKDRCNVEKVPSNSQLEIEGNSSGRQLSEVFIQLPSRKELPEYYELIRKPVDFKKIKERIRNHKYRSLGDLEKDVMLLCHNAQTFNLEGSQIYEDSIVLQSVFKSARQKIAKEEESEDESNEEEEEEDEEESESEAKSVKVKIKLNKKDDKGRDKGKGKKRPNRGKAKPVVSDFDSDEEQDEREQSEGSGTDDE

binding result (Brm): binds | binding result (BRG1): binds
B1: DPF2-CT1 (CT1 peptide of DPF2, amino acid residues 1 to 84) (peptide)
peptide: MAAVVENVVKLLGEQYYKDAMEQCHNYNARLCAERSVRLPFLDSQTGVAQSNCYIWMEKRHRGPGLASGQLYSYPARRWRKKRR
notes: One of a series of truncation mutants of DPF2
